The results in this text go back to US20150307616A1 (APEXIGEN, published 2015).

Assay [1] has as its target T1, human CD40 on the cell surface (human, UniProt P25942 21-277).
T1 construct: whole, on cells; also called cell surface CD40; CD40 on Ramos cells
Nature of the assay: FACS on Ramos cells, 4 h at 37 C, Alexa 488 goat anti-human IgG. The procedure: (§1) In order to assess the target mediated-internalization of APX005 for evaluating its impact on ADCC activity, Ramos cells were incubated with APX005 for 4 h at 37° C., a temperature permissive for internalization, or at 4° C. for 30 minutes, a temperature at which internalization is minimized. Cells were washed with staining buffer, followed by incubation with Alexa 488 labeled goat anti-human IgG for an additional 30 minutes at 4° C. FACS analysis was performed to examine the level of APX005 on the cell surface.

The target of assay [2] is T2, mouse CD40 (coated protein) (mouse, UniProt P27512 20-193, limits assumed).
T2 construct: Coated at 1 µg/ml on ELISA plates
The assay can be described thus: direct ELISA by the text (1 ug/ml CD40 coated, goat anti-human IgG-HRP); the axis of the sheet is labelled MFI. The procedure:
Cross-reactivity was assessed by direct ELISA. A total of 1 μg/ml of human CD40, monkey CD40 or mouse CD40 was coated on ELISA plates followed by incubation with […] of APX005 or control IgG1. Antibodies bound to CD40 were detected using goat anti-human IgG conjugated with HRP. APX005 clearly crossreacts with monkey CD40 but not mouse CD40. (FIG. 11A)

Assay [3] deals with T1, human CD40 on the cell surface. Nature of the assay: FACS on Ramos cells, 30 minutes at 4 C, Alexa 488 goat anti-human IgG. The procedure: as §1
Assay [4] has as its target T3, mouse CD40 on mouse A20 cells (mouse, UniProt P27512 20-289).
T3 construct: whole, on cells; also called A20 cell line which expresses mouse CD40
The assay can be described thus: FACS on mouse A20 cells, goat anti-human IgG (H+L)-R-PE. The procedure: Cross-reactivity of APX005 with mouse CD40 was further determined by FACS binding to a mouse A20 cell line which expresses mouse CD40. An aliquot of 0.5×10⁶ A20 cells was added to 96 well plates and incubated with 100 μl diluted rat anti-mouse CD40 antibody conjugated with PE, APX005 or IgG1 control antibodies. After washing, 100 μl Goat-anti human IgG (H+L) conjugated with R-PE (Southern Biotech CAT#2040-09) were added at 1:200 dilution in PBS to the sample and incubated for detection of APX005 and control human IgG1. A rat anti-mouse CD40 antibody conjugated with PE was used as positive control. Samples were re-suspended with 0.5 ml PBS and analyzed by FACS.

The target in the next assay is T4, human CD40 (human, UniProt P25942 21-193, limits assumed).
T4 construct: also called immobilized human CD40
The assay can be described thus: method not stated.

T1 sequence (P25942 21-277): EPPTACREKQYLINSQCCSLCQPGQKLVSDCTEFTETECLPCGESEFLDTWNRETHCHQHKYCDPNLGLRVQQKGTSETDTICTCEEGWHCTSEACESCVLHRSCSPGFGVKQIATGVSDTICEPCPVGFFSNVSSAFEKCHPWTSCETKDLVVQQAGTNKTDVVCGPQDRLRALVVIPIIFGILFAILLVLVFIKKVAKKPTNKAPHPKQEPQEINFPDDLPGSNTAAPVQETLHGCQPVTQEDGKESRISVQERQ
T2 sequence (P27512 20-193 limits assumed): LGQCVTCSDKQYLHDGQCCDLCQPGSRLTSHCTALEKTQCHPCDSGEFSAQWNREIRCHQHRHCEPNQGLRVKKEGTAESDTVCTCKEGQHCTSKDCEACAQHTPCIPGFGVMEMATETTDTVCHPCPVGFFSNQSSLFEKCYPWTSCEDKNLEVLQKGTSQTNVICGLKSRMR
T4 sequence (P25942 21-193 limits assumed): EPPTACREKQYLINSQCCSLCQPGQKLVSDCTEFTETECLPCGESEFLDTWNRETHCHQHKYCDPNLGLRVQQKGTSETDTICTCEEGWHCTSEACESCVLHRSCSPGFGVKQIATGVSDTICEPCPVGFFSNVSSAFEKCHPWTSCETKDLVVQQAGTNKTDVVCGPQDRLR
T3 sequence (P27512 20-289): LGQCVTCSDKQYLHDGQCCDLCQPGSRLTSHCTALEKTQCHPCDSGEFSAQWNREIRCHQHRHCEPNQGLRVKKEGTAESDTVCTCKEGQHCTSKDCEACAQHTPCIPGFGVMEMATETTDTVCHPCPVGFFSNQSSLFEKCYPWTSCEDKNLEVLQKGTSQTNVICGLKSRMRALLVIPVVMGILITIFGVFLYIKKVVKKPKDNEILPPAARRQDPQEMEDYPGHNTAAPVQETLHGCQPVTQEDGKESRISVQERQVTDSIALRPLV

B1: APX005 humanized anti-CD40 antibody (antibody, IgG1, V domains shown)
VH: QVQLVESGGGVVQPGRSLRLSCAASGFSFSSTYVCWVRQAPGKGLEWIACIYTGDGTNYSASWAKGRFTISKDSSKNTVYLQMNSLRAEDTAVYFCARPDITYGFAINFWGPGTLVTVSS
VL: DIQMTQSPSSLSASVGDRVTIKCQASQSISSRLAWYQQKPGKPPKLLIYRASTLASGVPSRFSGSGSGTDFTLTISSLQPEDVATYYCQCTGYGISWPIGGGTKVEIK
notes: also called humanized R-8
As for B1, the “EC50 (read off the curve)” value in assay [1] and in assay [3] was approximately 0.05 µg/mL throughout. Moreover, the binding result is reported as “no binding” in assay [2] and “no binding (tested: 10000 ng/ml)” in assay [4]. Also, binding with human CD40 was put at a Kd of 0.96 nM.
